Tested on: BG02 hESCs
Test: QRT-PCR of mesendoderm, definitive endoderm and other lineage transcripts in hESCs differentiated in defined media
Format: cell-based, human
Conditions: FIG. 7; Wnt3a 25 ng/ml; over 72 hours of treatment
Description: For DE differentiation, media was replaced after ˜18-24 hours with differentiation media (a), in the presence or absence of Wnt3a (25 ng/ml). RNA was prepared from cultures at times indicated and subject to QRT-PCR analysis of T, MixL1, GSC, Sox17 and CXCR4 transcripts. QRT-PCR reactions are normalized to GAPDH control. ‘Assays on demand’ QRT-PCR reactions were from Applied Biosystems and have been described previously (McLean et al., 2007).
BG02 hESCs were plated in defined conditions (a) and after 18 hours media was switched to differentiation media (a) with Wnt3a (25 ng/ml) for the first 24 hours. The time course proceeded for 96 hours. Untreated hESCs (96 hours) or cells in differentiation media (a) were collected at 24, 48, 72 and 96 hours for QRT-PCR analysis. ‘Assays on demand’ QRT-PCR reactions were from Applied Biosystems and have been described previously (McLean et al., 2007).
Culture of hESCs: Methods: hESCs are preferably grown in MEF-CM (details from previous filings) or defined media using Matrigel (1:200 dilution) as a growth matrix (for example). Cells are passaged manually or by using enzymatic methods such as collagenase or accutase and typically plated at 1×10^6 per 60 mm dish for 12-24 hours in hESC media then media is changes to promote DE differentiation (see ‘Differentiation media’ below). During differentiation, ‘differentiation media’ is replaced every day. […]

B1: Wnt3a: growth factor Wnt3a (25 ng/ml, R&D Systems) (protein, UniProt P56704 19-352, looked up)
Protein Wnt-3a: SYPIWWSLAVGPQYSSLGSQPILCASIPGLVPKQLRFCRNYVEIMPSVAEGIKIGIQECQHQFRGRRWNCTTVHDSLAIFGPVLDKATRESAFVHAIASAGVAFAVTRSCAEGTAAICGCSSRHQGSPGKGWKWGGCSEDIEFGGMVSREFADARENRPDARSAMNRHNNEAGRQAIASHMHLKCKCHGLSGSCEVKTCWWSQPDFRAIGDFLKDKYDSASEMVVEKHRESRGWVETLRPRYTYFKVPTERDLVYYEASPNFCEPNPETGSFGTRDRTCNVSSHGIDGCDLLCCGRGHNARAERRREKCRCVFHWCCYVSCQECTRVYDVHTCK
amount of CXCR4 mRNA produced, presence versus absence of Wnt3a: improves the amount of CXCR4 mRNA produced
